Measured values as given in IntAct's records for PubMed 31515488.

B1: Protein LDOC1 (Homo sapiens), O95751 (parent)
chain: MVDELVLLLHALLMRHRALSIENSQLMEQLRLLVCERASLLRQVRPPSCPVPFPETFNGESSRLPEFIVQTASYMLVNENRFCNDAMKVAFLISLLTGEAEEWVVPYIEMDSPILGDYRAFLDEMKQCFGWDDDEDDDDEEEEDDY
partner: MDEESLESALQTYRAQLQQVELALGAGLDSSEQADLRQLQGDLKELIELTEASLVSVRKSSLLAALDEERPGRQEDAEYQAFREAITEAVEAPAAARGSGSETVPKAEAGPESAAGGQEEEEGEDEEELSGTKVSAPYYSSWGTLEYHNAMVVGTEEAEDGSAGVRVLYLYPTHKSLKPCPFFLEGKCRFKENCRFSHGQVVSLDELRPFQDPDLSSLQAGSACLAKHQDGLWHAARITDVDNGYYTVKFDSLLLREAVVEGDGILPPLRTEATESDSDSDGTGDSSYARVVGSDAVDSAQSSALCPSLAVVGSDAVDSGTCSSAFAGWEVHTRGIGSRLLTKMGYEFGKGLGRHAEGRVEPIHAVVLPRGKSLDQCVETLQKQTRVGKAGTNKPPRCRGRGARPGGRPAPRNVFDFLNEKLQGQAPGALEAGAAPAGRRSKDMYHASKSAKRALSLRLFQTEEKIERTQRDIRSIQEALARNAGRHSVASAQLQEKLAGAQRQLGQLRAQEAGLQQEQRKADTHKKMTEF
B2: Tuftelin-interacting protein 11 (Homo sapiens), Q9UBB9 (parent)
chain: MSLSHLYRDGEGRIDDDDDERENFEITDWDLQNEFNPNRQRHWQTKEEATYGVWAERDSDDERPSFGGKRARDYSAPVNFISAGLKKGAAEEAELEDSDDEEKPVKQDDFPKDFGPRKLKTGGNFKPSQKGFAGGTKSFMDFGSWERHTKGIGQKLLQKMGYVPGRGLGKNAQGIINPIEAKQRKGKGAVGAYGSERTTQSMQDFPVVDSEEEAEEEFQKELSQWRKDPSGSKKKPKYSYKTVEELKAKGRISKKLTAPQKELSQVKVIDMTGREQKVYYSYSQISHKHNVPDDGLPLQSQQLPQSGKEAKAPGFALPELEHNLQLLIDLTEQEIIQNDRQLQYERDMVVNLFHELEKMTEVLDHEERVISNLSKVLEMVEECERRMQPDCSNPLTLDECARIFETLQDKYYEEYRMSDRVDLAVAIVYPLMKEYFKEWDPLKDCTYGTEIISKWKSLLENDQLLSHGGQDLSADAFHRLIWEVWMPFVRNIVTQWQPRNCDPMVDFLDSWVHIIPVWILDNILDQLIFPKLQKEVENWNPLTDTVPIHSWIHPWLPLMQARLEPLYSPIRSKLSSALQKWHPSDSSAKLILQPWKDVFTPGSWEAFMVKNIVPKLGMCLGELVINPHQQHMDAFYWVIDWEGMISVSSLVGLLEKHFFPKWLQVLCSWLSNSPNYEEITKWYLGWKSMFSDQVLAHPSVKDKFNEALDIMNRAVSSNVGAYMQPGARENIAYLTHTERRKDFQYEAMQERREAENMAQRGIGVAASSVPMNFKDLIETKAEEHNIVFMPVIGKRHEGKQLYTFGRIVIYIDRGVVFVQGEKTWVPTSLQSLIDMAK
partner: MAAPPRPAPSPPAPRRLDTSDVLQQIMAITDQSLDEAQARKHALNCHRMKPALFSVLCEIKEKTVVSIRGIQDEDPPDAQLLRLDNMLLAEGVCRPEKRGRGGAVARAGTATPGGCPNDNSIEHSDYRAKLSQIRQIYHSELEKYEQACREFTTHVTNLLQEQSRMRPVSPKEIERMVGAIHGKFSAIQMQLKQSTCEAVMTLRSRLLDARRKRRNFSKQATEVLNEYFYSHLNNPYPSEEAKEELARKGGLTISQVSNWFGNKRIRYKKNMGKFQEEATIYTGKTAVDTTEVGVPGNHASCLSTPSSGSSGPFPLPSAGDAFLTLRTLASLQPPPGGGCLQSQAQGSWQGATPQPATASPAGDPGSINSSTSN
B3: Amphiphysin (Homo sapiens), P49418 (parent)
chain: MADIKTGIFAKNVQKRLNRAQEKVLQKLGKADETKDEQFEEYVQNFKRQEAEGTRLQRELRGYLAAIKGMQEASMKLTESLHEVYEPDWYGREDVKMVGEKCDVLWEDFHQKLVDGSLLTLDTYLGQFPDIKNRIAKRSRKLVDYDSARHHLEALQSSKRKDESRISKAEEEFQKAQKVFEEFNVDLQEELPSLWSRRVGFYVNTFKNVSSLEAKFHKEIAVLCHKLYEVMTKLGDQHADKAFTIQGAPSDSGPLRIAKTPSPPEEPSPLPSPTASPNHTLAPASPAPARPRSPSQTRKGPPVPPLPKVTPTKELQQENIISFFEDNFVPEISVTTPSQNEVPEVKKEETLLDLDFDPFKPEVTPAGSAGVTHSPMSQTLPWDLWTTSTDLVQPASGGSFNGFTQPQDTSLFTMQTDQSMICNLAESEQAPPTEPKAEEPLAAVTPAVGLDLGMDTRAEEPVEEAVIIPGADADAAVGTLVSAAEGAPGEEAEAEKATVPAGEGVSLEEAKIGTETTEGAESAQPEAEELEATVPQEKVIPSVVIEPASNHEEEGENEITIGAEPKETTEDAAPPGPTSETPELATEQKPIQDPQPTPSAPAMGAADQLASAREASQELPPGFLYKVETLHDFEAANSDELTLQRGDVVLVVPSDSEADQDAGWLVGVKESDWLQYRDLATYKGLFPENFTRRLD
partner: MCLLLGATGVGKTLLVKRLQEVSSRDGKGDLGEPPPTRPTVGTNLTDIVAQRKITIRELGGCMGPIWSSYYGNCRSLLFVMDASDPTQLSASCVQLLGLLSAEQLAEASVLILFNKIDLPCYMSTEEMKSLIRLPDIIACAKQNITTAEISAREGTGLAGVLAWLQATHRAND
B4: E3 ubiquitin-protein ligase RNF185 (Homo sapiens), Q96GF1 (parent)
chain: MASKGPSASASPENSSAGGPSGSSNGAGESGGQDSTFECNICLDTAKDAVISLCGHLFCWPCLHQWLETRPNRQVCPVCKAGISRDKVIPLYGRGSTGQQDPREKTPPRPQGQRPEPENRGGFQGFGFGDGGFQMSFGIGAFPFGIFATAFNINDGRPPPAVPGTPQYVDEQFLSRLFLFVALVIMFWLLIA
B5: Medium-chain acyl-CoA ligase ACSF2, mitochondrial (Homo sapiens), Q96CM8 (parent)
chain: MAVYVGMLRLGRLCAGSSGVLGARAALSRSWQEARLQGVRFLSSREVDRMVSTPIGGLSYVQGCTKKHLNSKTVGQCLETTAQRVPEREALVVLHEDVRLTFAQLKEEVDKAASGLLSIGLCKGDRLGMWGPNSYAWVLMQLATAQAGIILVSVNPAYQAMELEYVLKKVGCKALVFPKQFKTQQYYNVLKQICPEVENAQPGALKSQRLPDLTTVISVDAPLPGTLLLDEVVAAGSTRQHLDQLQYNQQFLSCHDPINIQFTSGTTGSPKGATLSHYNIVNNSNILGERLKLHEKTPEQLRMILPNPLYHCLGSVAGTMMCLMYGATLILASPIFNGKKALEAISRERGTFLYGTPTMFVDILNQPDFSSYDISTMCGGVIAGSPAPPELIRAIINKINMKDLVVAYGTTENSPVTFAHFPEDTVEQKAESVGRIMPHTEARIMNMEAGTLAKLNTPGELCIRGYCVMLGYWGEPQKTEEAVDQDKWYWTGDVATMNEQGFCKIVGRSKDMIIRGGENIYPAELEDFFHTHPKVQEVQVVGVKDDRMGEEICACIRLKDGEETTVEEIKAFCKGKISHFKIPKYIVFVTNYPLTISGKIQKFKLREQMERHLNL
partner: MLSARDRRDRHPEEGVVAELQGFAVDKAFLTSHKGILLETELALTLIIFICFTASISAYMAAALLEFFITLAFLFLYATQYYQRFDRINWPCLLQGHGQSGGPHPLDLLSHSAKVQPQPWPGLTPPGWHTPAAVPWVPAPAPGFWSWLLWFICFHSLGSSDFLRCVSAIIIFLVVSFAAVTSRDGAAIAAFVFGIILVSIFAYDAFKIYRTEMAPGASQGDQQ
B6: Phagosome assembly factor 1 (Homo sapiens), Q9BSU1 (parent)
chain: MLDLEVVPERSLGNEQWEFTLGMPLAQAVAILQKHCRIIKNVQVLYSEQSPLSHDLILNLTQDGIKLMFDAFNQRLKVIEVCDLTKVKLKYCGVHFNSQAIAPTIEQIDQSFGATHPGVYNSAEQLFHLNFRGLSFSFQLDSWTEAPKYEPNFAHGLASLQIPHGATVKRMYIYSGNSLQDTKAPMMPLSCFLGNVYAESVDVLRDGTGPAGLRLRLLAAGCGPGLLADAKMRVFERSVYFGDSCQDVLSMLGSPHKVFYKSEDKMKIHSPSPHKQVPSKCNDYFFNYFTLGVDILFDANTHKVKKFVLHTNYPGHYNFNIYHRCEFKIPLAIKKENADGQTETCTTYSKWDNIQELLGHPVEKPVVLHRSSSPNNTNPFGSTFCFGLQRMIFEVMQNNHIASVTLYGPPRPGSHLRTAELP
B7: 2'-5'-oligoadenylate synthase 1 (Homo sapiens), P00973 (parent)
chain: MMDLRNTPAKSLDKFIEDYLLPDTCFRMQINHAIDIICGFLKERCFRGSSYPVCVSKVVKGGSSGKGTTLRGRSDADLVVFLSPLTTFQDQLNRRGEFIQEIRRQLEACQRERAFSVKFEVQAPRWGNPRALSFVLSSLQLGEGVEFDVLPAFDALGQLTGGYKPNPQIYVKLIEECTDLQKEGEFSTCFTELQRDFLKQRPTKLKSLIRLVKHWYQNCKKKLGKLPPQYALELLTVYAWERGSMKTHFNTAQGFRTVLELVINYQQLCIYWTKYYDFKNPIIEKYLRRQLTKPRPVILDPADPTGNLGGGDPKGWRQLAQEAEAWLNYPCFKNWDGSPVSSWILLAESNSADDETDDPRRYQKYGYIGTHEYPHFSHRPSTLQAASTPQAEEDWTCTIL
B8: Coiled-coil domain-containing protein 70 (Homo sapiens), Q6NSX1 (parent)
chain: MFSFKVSRWMGLACFRSLAASSPSIRQKKLMHKLQEEKAFREEMKIFREKIEDFREEMWTFRGKIHAFRGQILGFWEEERPFWEEEKTFWKEEKSFWEMEKSFREEEKTFWKKYRTFWKEDKAFWKEDNALWERDRNLLQEDKALWEEEKALWVEERALLEGEKALWEDKTSLWEEENALWEEERAFWMENNGHIAGEQMLEDGPHNANRGQRLLAFSRGRA
partner: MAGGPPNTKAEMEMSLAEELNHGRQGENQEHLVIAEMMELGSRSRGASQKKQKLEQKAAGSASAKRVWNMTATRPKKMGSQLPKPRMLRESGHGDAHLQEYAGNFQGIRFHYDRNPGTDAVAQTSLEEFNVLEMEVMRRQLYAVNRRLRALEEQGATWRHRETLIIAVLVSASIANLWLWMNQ

Variants of: B1
Settings: with zgpat_human ZGPAT

Variant | effect of a mutation on the interaction
L12H | disrupting interaction strength

Variants of: B2
Settings: with pbx4_human PBX4, Q9BYU1

Variant | effect of a mutation on the interaction
S688L | with no effect
R8Q | with no effect

Variants of: B3
Settings: with arl16_human ARL16, Q0P5N6

Variant | effect of a mutation on the interaction
M376I | with no effect

Variants of: B4
Settings: with ub2e3_human UBE2E3, Q969T4
Chain of ub2e3_human UBE2E3, Q969T4 (Q969T4 whole entry): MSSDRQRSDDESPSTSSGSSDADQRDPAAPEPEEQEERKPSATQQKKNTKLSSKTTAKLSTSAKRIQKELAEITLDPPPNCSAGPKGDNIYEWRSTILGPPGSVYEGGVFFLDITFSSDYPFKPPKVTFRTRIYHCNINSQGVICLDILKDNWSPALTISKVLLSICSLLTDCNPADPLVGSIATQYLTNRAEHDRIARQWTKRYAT

Variant | effect of a mutation on the interaction
A17T | with no effect

Variants of: B5
Settings: with cklf5_human CMTM5, Q96DZ9

Variant | effect of a mutation on the interaction
A34V | disrupting interaction strength
G19W | disrupting interaction strength

Variants of: B6
Settings: with bcas3_human BCAS3, Q9H6U6
Chain of bcas3_human BCAS3, Q9H6U6 (Q9H6U6 whole entry): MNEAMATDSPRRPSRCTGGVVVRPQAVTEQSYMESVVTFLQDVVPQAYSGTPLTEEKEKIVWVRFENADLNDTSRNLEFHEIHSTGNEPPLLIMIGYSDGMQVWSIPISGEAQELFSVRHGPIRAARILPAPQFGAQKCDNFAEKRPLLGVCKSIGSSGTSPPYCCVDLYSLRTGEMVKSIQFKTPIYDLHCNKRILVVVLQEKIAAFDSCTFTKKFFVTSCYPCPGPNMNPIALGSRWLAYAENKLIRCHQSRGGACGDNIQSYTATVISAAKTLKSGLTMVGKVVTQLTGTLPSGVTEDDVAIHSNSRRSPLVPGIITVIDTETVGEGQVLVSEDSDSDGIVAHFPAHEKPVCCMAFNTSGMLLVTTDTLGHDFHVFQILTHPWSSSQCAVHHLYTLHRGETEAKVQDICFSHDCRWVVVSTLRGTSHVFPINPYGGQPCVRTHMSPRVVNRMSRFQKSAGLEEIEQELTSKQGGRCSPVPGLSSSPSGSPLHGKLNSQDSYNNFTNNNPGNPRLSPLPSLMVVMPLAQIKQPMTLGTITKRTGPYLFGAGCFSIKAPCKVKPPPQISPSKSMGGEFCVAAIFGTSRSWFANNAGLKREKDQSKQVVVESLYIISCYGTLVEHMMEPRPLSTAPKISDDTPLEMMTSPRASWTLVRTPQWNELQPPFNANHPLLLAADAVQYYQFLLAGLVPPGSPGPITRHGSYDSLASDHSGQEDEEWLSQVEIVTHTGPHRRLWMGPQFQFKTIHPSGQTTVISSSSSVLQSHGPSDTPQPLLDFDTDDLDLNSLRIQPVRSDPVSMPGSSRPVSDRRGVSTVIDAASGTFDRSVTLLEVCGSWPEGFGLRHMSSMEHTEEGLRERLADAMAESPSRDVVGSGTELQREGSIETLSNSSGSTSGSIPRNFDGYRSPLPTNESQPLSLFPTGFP

Variant | effect of a mutation on the interaction
G13R | with no effect

Variants of: B7
Settings: with actn1_human ACTN1, P12814
Chain of actn1_human ACTN1, P12814 (P12814 whole entry): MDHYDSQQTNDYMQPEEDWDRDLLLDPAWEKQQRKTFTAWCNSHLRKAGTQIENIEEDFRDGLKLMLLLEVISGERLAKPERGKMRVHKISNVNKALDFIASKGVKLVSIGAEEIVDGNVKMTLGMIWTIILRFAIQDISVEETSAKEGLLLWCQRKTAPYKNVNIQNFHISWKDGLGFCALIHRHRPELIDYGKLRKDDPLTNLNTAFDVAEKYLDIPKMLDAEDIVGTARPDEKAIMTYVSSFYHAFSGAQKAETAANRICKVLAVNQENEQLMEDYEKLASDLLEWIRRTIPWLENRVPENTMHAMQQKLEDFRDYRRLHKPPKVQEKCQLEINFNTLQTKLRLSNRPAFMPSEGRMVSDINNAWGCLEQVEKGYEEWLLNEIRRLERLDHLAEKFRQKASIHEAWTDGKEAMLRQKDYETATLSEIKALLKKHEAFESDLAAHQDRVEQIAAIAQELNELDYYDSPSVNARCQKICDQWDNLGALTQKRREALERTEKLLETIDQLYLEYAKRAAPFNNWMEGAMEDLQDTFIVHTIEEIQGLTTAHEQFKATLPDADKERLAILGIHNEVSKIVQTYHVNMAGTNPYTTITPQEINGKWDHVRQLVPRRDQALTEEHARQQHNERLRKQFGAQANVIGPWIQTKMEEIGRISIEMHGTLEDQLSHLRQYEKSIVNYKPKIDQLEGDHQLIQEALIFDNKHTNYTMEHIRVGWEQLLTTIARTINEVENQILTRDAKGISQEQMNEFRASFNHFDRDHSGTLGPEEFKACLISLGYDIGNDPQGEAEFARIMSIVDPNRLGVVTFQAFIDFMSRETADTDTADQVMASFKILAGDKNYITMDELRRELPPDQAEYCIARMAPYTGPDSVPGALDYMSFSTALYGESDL

Variant | effect of a mutation on the interaction
L327P | disrupting interaction strength

Variants of: B8
Settings: with fate1_human FATE1, Q969F0

Variant | effect of a mutation on the interaction
R62Q | with no effect
M200V | with no effect
